In publication PMC12373829 (Nature Communications, 2025):

Key:
[1] = molecular target: T1, acarbose-preferred glucosidase (Apg) (Klebsiella grimontii, UniProt A0ABD7ANA7, DEL138-152); assay: X-ray crystal structure; format: binding
T1 sequence (A0ABD7ANA7 1-605 DEL138-152): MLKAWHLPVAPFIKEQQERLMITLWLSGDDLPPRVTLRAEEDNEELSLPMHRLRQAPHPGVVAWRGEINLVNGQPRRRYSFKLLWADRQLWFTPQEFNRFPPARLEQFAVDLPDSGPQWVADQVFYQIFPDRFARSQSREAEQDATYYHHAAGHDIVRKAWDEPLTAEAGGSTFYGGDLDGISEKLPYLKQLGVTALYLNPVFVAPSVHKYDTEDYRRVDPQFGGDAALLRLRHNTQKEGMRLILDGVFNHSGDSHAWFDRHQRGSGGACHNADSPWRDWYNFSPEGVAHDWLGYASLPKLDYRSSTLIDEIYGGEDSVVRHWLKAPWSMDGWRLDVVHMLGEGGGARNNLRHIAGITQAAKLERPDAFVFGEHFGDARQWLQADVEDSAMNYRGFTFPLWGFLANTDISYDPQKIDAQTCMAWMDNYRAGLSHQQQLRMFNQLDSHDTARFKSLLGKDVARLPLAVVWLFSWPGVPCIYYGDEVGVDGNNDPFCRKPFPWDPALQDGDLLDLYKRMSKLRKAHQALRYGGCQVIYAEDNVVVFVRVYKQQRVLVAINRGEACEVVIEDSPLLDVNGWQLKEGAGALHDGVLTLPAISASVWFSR

[2] = molecular target: acarbose-preferred glucosidase (Apg), wild type (K. grimontii TD1); assay: SEC
purified protein [3] = substrate: C[C@H]1O[C@H](O[C@H]2[C@H](O)[C@@H](O)[C@@H](O)O[C@@H]2CO)[C@H](O)[C@@H](O)[C@@H]1N[C@H]1C=C(CO)[C@@H](O)[C@H](O)[C@H]1O; assay: purified protein; conditions: active site
purified protein [4] = substrate: C[C@H]1O[C@H](O[C@H]2[C@H](O)[C@@H](O)[C@@H](O[C@H]3[C@H](O)[C@@H](O)C(O)O[C@@H]3CO)O[C@@H]2CO)[C@H](O)[C@@H](O)[C@@H]1N[C@H]1C=C(CO)[C@@H](O)[C@H](O)[C@H]1O; assay: purified protein; conditions: active site; D448 nucleophile, E373/R334 proton donor

OC[C@H]1O[C@H](O)[C@H](O)[C@@H](O)[C@@H]1O [glucose]
X-ray crystal structure (co-crystallization) [1]: Crystals of the glucose complex were obtained by co-crystallization of the ∆loop A mutant

acarbose-preferred glucosidase (Apg), wild type (enzyme)
stoichiometry N [2]: 2

B1: acarbose-preferred glucosidase (Apg) (Klebsiella grimontii) (protein)
chain: MLKAWHLPVAPFIKEQQERLMITLWLSGDDLPPRVTLRAEEDNEELSLPMHRLRQAPHPGVVAWRGEINLVNGQPRRRYSFKLLWADRQLWFTPQEFNRFPPARLEQFAVDLPDSGPQWVADQVFYQIFPDRFARSQSREAEQDATYYHHAAGHDIVRKAWDEPLTAEAGGSTFYGGDLDGISEKLPYLKQLGVTALYLNPVFVAPSVHKYDTEDYRRVDPQFGGDAALLRLRHNTQKEGMRLILDGVFNHSGDSHAWFDRHQRGSGGACHNADSPWRDWYNFSPEGVAHDWLGYASLPKLDYRSSTLIDEIYGGEDSVVRHWLKAPWSMDGWRLDVVHMLGEGGGARNNLRHIAGITQAAKLERPDAFVFGEHFGDARQWLQADVEDSAMNYRGFTFPLWGFLANTDISYDPQKIDAQTCMAWMDNYRAGLSHQQQLRMFNQLDSHDTARFKSLLGKDVARLPLAVVWLFSWPGVPCIYYGDEVGVDGNNDPFCRKPFPWDPALQDGDLLDLYKRMSKLRKAHQALRYGGCQVIYAEDNVVVFVRVYKQQRVLVAINRGEACEVVIEDSPLLDVNGWQLKEGAGALHDGVLTLPAISASVWFSR
Km (purified protein [3]): 6.642 ± 0.371 µM | Km (purified protein [4]): 2.600 ± 0.652 µM
